According to patent US10450368 (DUKE UNIVERSITY, dated 2019):

Experiments:
[1] = target: T1, SSB (UniProt P05455 1-408); experiment: AtheNA, Ab 6.25 ug/ml
T1 sequence: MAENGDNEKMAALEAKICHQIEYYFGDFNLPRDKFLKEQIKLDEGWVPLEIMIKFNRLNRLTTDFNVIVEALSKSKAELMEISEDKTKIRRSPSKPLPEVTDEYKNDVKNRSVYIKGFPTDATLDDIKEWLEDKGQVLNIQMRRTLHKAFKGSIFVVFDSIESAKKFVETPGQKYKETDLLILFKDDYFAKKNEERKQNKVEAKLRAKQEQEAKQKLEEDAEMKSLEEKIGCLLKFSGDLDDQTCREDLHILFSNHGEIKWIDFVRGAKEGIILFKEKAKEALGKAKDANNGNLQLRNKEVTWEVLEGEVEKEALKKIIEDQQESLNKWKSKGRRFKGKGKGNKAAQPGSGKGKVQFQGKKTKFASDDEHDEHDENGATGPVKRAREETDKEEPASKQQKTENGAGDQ

[2] = target: T2, Sm (Smith antigen); experiment: AtheNA, Ab 50 ug/ml
T2 construct: Protein complex

[3] = target: T3, Centromere B (UniProt P07199 1-599); experiment: AtheNA, Ab 50 ug/ml
T3 construct: also called Cent B
T3 sequence: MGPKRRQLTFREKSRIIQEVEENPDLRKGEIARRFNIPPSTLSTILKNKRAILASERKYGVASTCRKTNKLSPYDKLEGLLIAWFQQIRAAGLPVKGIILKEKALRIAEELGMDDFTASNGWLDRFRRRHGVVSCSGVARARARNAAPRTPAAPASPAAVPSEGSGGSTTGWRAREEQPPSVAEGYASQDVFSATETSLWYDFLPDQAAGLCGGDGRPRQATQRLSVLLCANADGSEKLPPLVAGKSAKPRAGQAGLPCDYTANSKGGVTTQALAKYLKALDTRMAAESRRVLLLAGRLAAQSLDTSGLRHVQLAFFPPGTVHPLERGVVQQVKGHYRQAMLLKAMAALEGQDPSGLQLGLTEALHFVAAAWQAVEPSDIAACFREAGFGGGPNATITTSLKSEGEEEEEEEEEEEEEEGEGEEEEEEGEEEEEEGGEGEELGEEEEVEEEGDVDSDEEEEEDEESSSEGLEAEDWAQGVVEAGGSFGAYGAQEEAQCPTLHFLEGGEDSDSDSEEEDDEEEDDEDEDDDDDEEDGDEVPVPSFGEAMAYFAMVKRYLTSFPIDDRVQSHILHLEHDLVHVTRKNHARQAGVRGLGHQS

[4] = target: T4, RNP (ribonucleoprotein); experiment: AtheNA, Ab 50 ug/ml
T4 construct: Protein-RNA complex

[5] = target: T1, SSB; experiment: AtheNA, Ab 50 ug/ml
[6] = target: T5, Jo-1 (UniProt P12081 1-509); experiment: AtheNA, Ab 50 ug/ml
T5 sequence: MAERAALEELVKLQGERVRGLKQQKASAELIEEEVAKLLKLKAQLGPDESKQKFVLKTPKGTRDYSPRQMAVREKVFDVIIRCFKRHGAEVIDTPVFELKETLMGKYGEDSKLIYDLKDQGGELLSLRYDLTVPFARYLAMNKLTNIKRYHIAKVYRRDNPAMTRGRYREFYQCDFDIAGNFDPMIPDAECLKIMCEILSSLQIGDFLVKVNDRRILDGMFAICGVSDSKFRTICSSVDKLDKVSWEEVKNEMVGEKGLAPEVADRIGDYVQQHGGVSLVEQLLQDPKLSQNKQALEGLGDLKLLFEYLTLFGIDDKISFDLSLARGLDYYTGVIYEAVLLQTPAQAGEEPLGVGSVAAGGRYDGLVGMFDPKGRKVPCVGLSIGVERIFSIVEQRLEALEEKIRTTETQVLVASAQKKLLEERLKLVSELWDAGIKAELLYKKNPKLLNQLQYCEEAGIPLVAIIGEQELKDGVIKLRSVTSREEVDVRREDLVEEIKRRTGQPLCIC

[7] = target: T6, SSA; experiment: AtheNA, Ab 50 ug/ml
T6 construct: also called SSA (Ro)

[8] = target: T7, CH505.TF mutant gp120 M8 (HIV-1); experiment: direct-binding ELISA (OD450), panel 'CH505.TF gp120 M8'
T7 construct: domain: gp120

[9] = target: T2, Sm (Smith antigen); experiment: AtheNA, Ab 25 ug/ml
Text: (§1) AtheNA Multi-Lyte ANA Plus Test System is one such assay. This is luminex-based assay, which is also used to screen patient sera.

[10] = target: T8, Histones; experiment: AtheNA, Ab 25 ug/ml
T8 construct: Mixture of proteins
Text: as §1

[11] = target: T4, RNP (ribonucleoprotein); experiment: AtheNA, Ab 25 ug/ml
Text: as §1

[12] = target: T9, Scl-70 (UniProt P11387 1-765); experiment: AtheNA, Ab 25 ug/ml
T9 sequence: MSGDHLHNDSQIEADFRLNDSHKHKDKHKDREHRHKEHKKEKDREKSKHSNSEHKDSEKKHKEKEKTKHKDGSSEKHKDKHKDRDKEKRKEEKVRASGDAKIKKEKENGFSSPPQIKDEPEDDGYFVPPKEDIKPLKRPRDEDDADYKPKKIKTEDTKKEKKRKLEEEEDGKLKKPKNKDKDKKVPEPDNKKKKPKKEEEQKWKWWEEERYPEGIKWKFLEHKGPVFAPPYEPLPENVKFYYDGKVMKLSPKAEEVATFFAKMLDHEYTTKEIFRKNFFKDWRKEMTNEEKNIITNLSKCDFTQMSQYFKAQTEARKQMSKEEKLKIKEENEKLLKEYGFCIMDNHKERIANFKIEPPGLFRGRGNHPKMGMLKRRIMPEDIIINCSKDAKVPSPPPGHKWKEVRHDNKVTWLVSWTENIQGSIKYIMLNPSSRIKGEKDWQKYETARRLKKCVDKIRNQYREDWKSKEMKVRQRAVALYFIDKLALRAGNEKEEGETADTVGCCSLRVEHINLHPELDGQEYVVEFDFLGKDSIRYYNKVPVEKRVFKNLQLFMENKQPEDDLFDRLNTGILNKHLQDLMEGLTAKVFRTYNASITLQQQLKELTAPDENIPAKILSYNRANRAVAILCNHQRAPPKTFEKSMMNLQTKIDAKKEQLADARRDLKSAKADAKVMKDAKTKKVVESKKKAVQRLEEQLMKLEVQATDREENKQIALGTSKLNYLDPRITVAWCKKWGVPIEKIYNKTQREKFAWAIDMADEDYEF
Text: as §1

[13] = target: T1, SSB; experiment: AtheNA, Ab 25 ug/ml
Text: as §1

[14] = target: T6, SSA; experiment: AtheNA, Ab 25 ug/ml
Text: as §1

B1: CH557 (antibody, V domains shown)
VH: QVRLAQYGGGVKRLGATMTLSCVASGYTFNDYYIHWVRQAPGQGFELLGYIDPANGRPDYAGALRERLSFYRDKSMETLYMDLRSLRYDDTAMYYCVRNVGTAGSLLHYDHWGSGSPVIVSS
VL: EIVLTQSPATLSASPGERVTLTCRASRSVRNNVAWYQHKGGQSPRLLIYDASTRAAGVPARFSGSASGTEFTLAISNLESEDFTVYFCLQYNNWWTFGQGTRVDIK
notes: also called CH235.12; CH557_4A/293i
B1 was tested, and the AtheNA signal [1] was 5 relative luminescence units, the AtheNA signal [2] was 8 relative luminescence units and the AtheNA signal [3] was 46 relative luminescence units. For the same binder, the AtheNA signal [4] was 10 relative luminescence units, the AtheNA signal [5] was 15 relative luminescence units and the AtheNA signal [6] was 10 relative luminescence units. The AtheNA signal [7] was 6 relative luminescence units.

B2: CH493 (antibody, V domains shown)
VH: QVRLLQYGGGVKRPGASMTISCVASGYNFNDYYIHWVRQAPGQGLELMGWIDPSGGRTDYAGAFGDRVSMYRDKSMNTLYMDLRSLRSGDTAMYYCVRNVGTAGSLLHYDHWGLGVMVTVSS
VL: EIVLTQSPATLSVSPGERVTLSCRASQSVRNNLAWYRQKRGQAPRLLIYGASTRATGIPARFSGSGSGTEFTLTISSMQSEDFAVYYCQQYNNWWTFGQGTKVEIK
notes: also called CH235.9; DH493
For B2, the “EC50 (read off the curve)” value [8] was ~2 µg/mL, the AtheNA signal [9] was 53 and the AtheNA signal [10] was 202. It also gave an AtheNA signal [11] of 55, an AtheNA signal [12] of 34 and an AtheNA signal [13] of 38. It also gave an AtheNA signal [14] of 100.
